Measured values: patent publication EP1662255A2 (THE JOHNS HOPKINS UNIVERSITY SCHOOL OF MEDICINE, dated 2006)
One block for each binder: values may come before it.

B1: GRIP PDZ 4-6 (GST fusion) (other, UniProt P97879 471-754, looked up)
chain: EVVLTADPVTGFGIQLQGSVFATETLSSPPLISYIEADSPAERCGVLQIGDRVMAINGIPTEDSTFEEANQLLRDSSITSKVTLEIEFDVAESVIPSSGTFHVKLPKKHSVELGITISSPSSRKPGDPLVISDIKKGSVAHRTGTLELGDKLLAIDNIRLDSCSMEDAVQILQQCEDLVKLKIRKDEDNSDEQESSGAIIYTVELKRYGGPLGITISGTEEPFDPIIISSLTKGGLAERTGAIHIGDRILAINSSSLKGKPLSEAIHLLQMAGETVTLKIKKQT
notes: domain: PDZ 4-6; also called PDZ domains of GRIP; not shown: glutathione S-transferase fusion partner
B4: SAP102 PDZ1-3 (GST fusion) (other, UniProt Q62936 149-484, looked up)
chain: EIVLERGNSGLGFSIAGGIDNPHVPDDPGIFITKIIPGGAAAMDGRLGVNDCVLRVNEVDVSEVVHSRAVEALKEAGPVVRLVVRRRQPPPETIMEVNLLKGPKGLGFSIAGGIGNQHIPGDNSIYITKIIEGGAAQKDGRLQIGDRLLAVNNTNLQDVRHEEAVASLKNTSDMVYLKVAKPGSLHLNDMYAPPDYASTFTALADNHISHNSSLGYLGAVESKVTYPAPPQVPPTRYSPIPRHMLAEEDFTREPRKIILHKGSTGLGFNIVGGEDGEGIFVSFILAGGPADLSGELRRGDRILSVNGVNLRNATHEQAAAALKRAGQSVTIVAQYR
notes: domain: PDZ 1-3; also called SAP102 PDZI-3; not shown: glutathione S-transferase fusion partner

Legend:
[1] = biological target: T1, carboxy-terminal 347 amino acids of GKAP-3 (amino-terminal myc tag) (rat, UniProt P97838 631-977); assay: GST pulldown from HEK293 lysate
T1 construct: domain: carboxy-terminal 347 amino acids; also called GKAP-3/SAPAP3 carboxy-terminus
T1 sequence (looked up): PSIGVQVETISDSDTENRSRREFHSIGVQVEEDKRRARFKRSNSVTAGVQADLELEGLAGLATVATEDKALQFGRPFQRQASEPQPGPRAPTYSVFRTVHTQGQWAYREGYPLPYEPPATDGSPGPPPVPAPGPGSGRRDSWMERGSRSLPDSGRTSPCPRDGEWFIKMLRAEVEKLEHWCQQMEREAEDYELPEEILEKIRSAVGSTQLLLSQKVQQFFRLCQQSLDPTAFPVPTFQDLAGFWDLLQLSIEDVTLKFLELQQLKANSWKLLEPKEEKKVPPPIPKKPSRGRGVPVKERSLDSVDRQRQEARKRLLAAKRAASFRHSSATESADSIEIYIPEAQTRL

[2] = biological target: T2, GKAP1 (native, rat brain extracts) (rat, UniProt P97836 1-992); assay: GST pull-down from rat brain extracts
T2 construct: mature
T2 sequence (looked up): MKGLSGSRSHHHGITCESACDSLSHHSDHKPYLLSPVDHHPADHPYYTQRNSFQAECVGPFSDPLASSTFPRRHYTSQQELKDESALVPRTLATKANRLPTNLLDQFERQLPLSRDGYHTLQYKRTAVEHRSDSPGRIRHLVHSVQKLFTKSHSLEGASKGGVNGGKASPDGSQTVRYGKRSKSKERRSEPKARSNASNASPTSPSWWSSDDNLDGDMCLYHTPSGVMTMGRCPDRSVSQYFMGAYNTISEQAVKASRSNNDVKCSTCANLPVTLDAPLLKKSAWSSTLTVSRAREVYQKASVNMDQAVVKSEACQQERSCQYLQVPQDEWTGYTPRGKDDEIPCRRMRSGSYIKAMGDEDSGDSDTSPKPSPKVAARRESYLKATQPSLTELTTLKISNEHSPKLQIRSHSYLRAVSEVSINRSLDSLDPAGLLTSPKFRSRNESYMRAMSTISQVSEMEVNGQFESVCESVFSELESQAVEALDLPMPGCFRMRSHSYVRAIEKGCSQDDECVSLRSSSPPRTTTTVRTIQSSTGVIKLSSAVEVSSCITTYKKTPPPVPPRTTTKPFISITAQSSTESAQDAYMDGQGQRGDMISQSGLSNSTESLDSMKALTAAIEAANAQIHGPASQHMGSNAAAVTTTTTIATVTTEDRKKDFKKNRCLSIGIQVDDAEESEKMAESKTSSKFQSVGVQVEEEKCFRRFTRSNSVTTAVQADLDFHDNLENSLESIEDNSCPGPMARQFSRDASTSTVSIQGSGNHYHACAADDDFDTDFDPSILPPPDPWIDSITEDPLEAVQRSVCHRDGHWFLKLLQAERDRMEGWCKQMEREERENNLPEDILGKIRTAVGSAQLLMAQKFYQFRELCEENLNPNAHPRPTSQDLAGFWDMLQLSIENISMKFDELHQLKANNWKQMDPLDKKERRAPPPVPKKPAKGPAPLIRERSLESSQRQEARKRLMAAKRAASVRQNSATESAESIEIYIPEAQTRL

[3] = biological target: B4; assay: GST pulldown from extracts of heterologous cells
[4] = biological target: B1; assay: GST pulldown from extracts of heterologous cells

binding result [2]: no binding
B2: GST-GKAP(carboxy-terminal) (other, UniProt P97836-5 591-666, looked up)
chain: MDPLDKKERRAPPPVPKKPAKGPAPLIRERSLESSQRQEARKRLMAAKRAASVRQNSATESAESIEIYIPEAQTRL
notes: domain: carboxy-terminal 76 amino acids; also called carboxy-terminal 76 amino acids of GKAP1a fused to GST; not shown: glutathione S-transferase fusion partner

binding result [3]: no binding
binding result [4]: no binding
B3: recombinant mGluR5 carboxy-terminal 241 amino acid peptide (receptor, UniProt P31424 963-1203, looked up)
chain: AAGGGSGPGVAGAGNAGCTATGGPEPPDAGPKALYDVAEAEESFPAAARPRSPSPISTLSHLAGSAGRTDDDAPSLHSETAARSSSSQGSLMEQISSVVTRFTANISELNSMMLSTAATPGPPGTPICSSYLIPKEIQLPTTMTTFAEIQPLPAIEVTGGAQGATGVSPAQETPTGAESAPGKPDLEELVALTPPSPFRDSVDSGSTTPNSPVSESALCIPSSPKYDTLIIRDYTQSSSSL
notes: domain: carboxy-terminal 241 amino acids; Expressed in heterologous cells for GST pulldown; also called mGluR5 carboxy-terminal tail; mGluR5 C-terminal tail

The next lines start with the binder.

Binder: B1
binding result [1]: no binding

Binder: B4
binding result [1]: no binding
